Square brackets hold non-standard residues; d marks the D form. Ends that are not written are not given here. * marks the point of attachment. His(π-(CH2)8Ph,τ-CH2CH2CH(OH)CH2OH) = His N(pi)-(CH2)8Ph and N(tau)-CH2CH2CH(OH)CH2OH; FITC = O=C1OC2(c3ccc(O)cc3Oc3cc(O)ccc32)c2ccc(NC(=S)*)cc21; His(π-(CH2)8Ph) = N[C@@H](Cc1cncn1CCCCCCCCc1ccccc1)C(=O)O; pT = C[C@@H](OP(=O)(O)O)[C@H](N)C(=O)O; PEG = not defined here

Two molecules from PMC4895914 (2014) can be followed below.

Assay in all cases: fluorescence polarization
(In general: In fluorescence polarisation assays a small probe gives low polarisation when free and higher when bound to something large.)

For one test, the target named is T1, 3m* (not fully specified; reading uncertain).
T1 chain: {FITC-PEG}-PL[His(π-(CH2)8Ph,τ-CH2CH2CH(OH)CH2OH)]S[pT]

The next test deals with T2, 3c* (not fully specified (residue 3); reading uncertain; also: His N(tau)-hydroxyalkyl, not given here).
T2 chain: {FITC-PEG}-PLHS[pT]

Another test has as its target T3, 2a* (not fully specified; reading uncertain).
T3 chain: {FITC-PEG}-PL[His(π-(CH2)8Ph)]S[pT]

B1: Plk3 PBD PBD (protein)
chain: TPPNPARSLFAKVTKSLFGRKKKSKNHAQERDEVSGLVSGLMRTSVGHQDARPEAPAASGPAPVSLVETAPEDSSPRGTLASSGDGFEEGLTVATVVESALCALRNCIAFMPPAEQNPAPLAQPEPLVWVSKWVDYSNKFGFGYQLSSRRVAVLFNDGTHMALSANRKTVHYNPTSTKHFSFSVGAVPRALQPQLGILRYFASYMEQHLMKGGDLPSVEEVEVPAPPLLLQWVKTDQALLMLFSDGTVQVNFYGDHTKLILSGWEPLLVTFVARNRSACTYLASHLRQLGCSPDLRQRLRYALRLLRDRSPA
On to B1, for which the results for the Kd with 3m*, in the test with 3c* and in the test with 2a* were 62 nM, 240 nM and 306 nM, respectively.

B2: Plk2 PBD PBD (protein)
chain: HLSSPAKNFFKKAAAALFGGKKDKARYIDTHNRVSKEDEDIYKLRHDLKKTSITQQPSKHRTDEELQPPTTTVARSGTPAVENKQQIGDAIRMIVRGTLGSCSSSSECLEDSTMGSVADTVARVLRGCLENMPEADCIPKEQLSTSFQWVTKWVDYSNKYGFGYQLSDHTVGVLFNNGAHMSLLPDKKTVHYYAELGQCSVFPATDAPEQFISQVTVLKYFSHYMEENLMDGGDLPSVTDIRRPRLYLLQWLKSDKALMMLFNDGTFQVNFYHDHTKIIICSQNEEYLLTYINEDRISTTFRLTTLLMSGCSSELKNRMEYALNMLLQRCN
As for B2, the Kd (in general, the constant that tells how readily two partners part at equilibrium) with 3m* turned out to be 24 nM; with 3c*, 43 nM; with 2a*, 400 nM.
